We go through one substance from PMC10037447.

Where “and” joins values, the source holds several entries; their conditions need not be identical. Equal values may be shown once.

In this assay the target is F-type ATP synthase from bovine heart mitochondria (Bos taurus (purified from bovine heart)). Nature of the assay: native gel or EMSA; Blue-Native PAGE (3-12% Bis-Tris mini-gels) of F-type ATP synthase re-extracted with 0.5% LMNG from LAiR proteoliposomes (bovine heart lipids) at time points over 5 days of storage on ice at 4 °C. (In EMSA bound probe runs differently from free probe, usually more slowly.)

For the substance “F-type ATP synthase from bovine heart mitochondria (complex)”, the stoichiometry N (in general, a count of units in the complex or per binding partner) is 2 and 4.
